Assay results published in paper PMC6736635.
Like-named read-outs stand apart in the source and are kept apart here.

Tests used:
Test in all cases: fluorescence anisotropy
PRC2-AEBP2 [1] = biological target: T1, PRC2-AEBP2 (Homo sapiens, UniProt Q15910;Q15022;O75530;Q09028;Q6ZN18 1-746;1-739;1-441;1-425;1-517)
PRC2-AEBP2 [2] = biological target: T1, PRC2-AEBP2; remark: listed apart in the source
PRC2-AEBP2 mt2 = PRC2-AEBP2 mt2 (Homo sapiens, UniProt Q15910;Q15022;O75530;Q09028;Q6ZN18 1-746;1-739;1-441;1-425;1-517, H129A;K156A;H158A;G159A;R161A;R306A)
PRC2-PHF19 = PRC2-PHF19 (Homo sapiens, UniProt Q15910;Q15022;O75530;Q09028;Q5T6S3 1-746;1-739;1-441;1-425;1-580)
PRC2-MTF2-EPOP = PRC2-MTF2-EPOP (Homo sapiens, UniProt Q15910;Q15022;O75530;Q09028;Q9Y483;A6NHQ4 1-746;1-739;1-441;1-425;1-593;1-379)
PRC2-AEBP2 mt1 = PRC2-AEBP2 mt1 (Homo sapiens, UniProt Q15910;Q15022;O75530;Q09028;Q6ZN18 1-746;1-739;1-441;1-425;1-517, R27A;R31A;F165A;R355A)
PRC2-AEBP2 mt3 = PRC2-AEBP2 mt3 (Homo sapiens, UniProt Q15910;Q15022;O75530;Q09028;Q6ZN18 1-746;1-739;1-441;1-425;1-517, R16A;K17A;R18A;K20A)
[3] = biological target: PRC2 core (EZH2-EED-SUZ12-RBBP4) (Homo sapiens, UniProt Q15910;Q15022;O75530;Q09028 1-746;1-739;1-441;1-425)
PRC2-AEBP2 mt4 = PRC2-AEBP2 mt4 (Homo sapiens, UniProt Q15910;Q15022;O75530;Q09028;Q6ZN18 1-746;1-739;1-441;1-425;1-517, K656A)
PRC2-AEBP2 mt5 = PRC2-AEBP2 mt5 (Homo sapiens, UniProt Q15910;Q15022;O75530;Q09028;Q6ZN18 1-746;1-739;1-441;1-425;1-517, Y133A;T144A;F145A;Y153A;Y308A)
PRC2-MTF2 = PRC2-MTF2 (Homo sapiens, UniProt Q15910;Q15022;O75530;Q09028;Q9Y483 1-746;1-739;1-441;1-425;1-593)
PRC2-AEBP2 [4] = biological target: T1, PRC2-AEBP2; remark: listed apart in the source

Sequence of PRC2 core (EZH2-EED-SUZ12-RBBP4) (Q15910 whole entry, chain 1 of 4): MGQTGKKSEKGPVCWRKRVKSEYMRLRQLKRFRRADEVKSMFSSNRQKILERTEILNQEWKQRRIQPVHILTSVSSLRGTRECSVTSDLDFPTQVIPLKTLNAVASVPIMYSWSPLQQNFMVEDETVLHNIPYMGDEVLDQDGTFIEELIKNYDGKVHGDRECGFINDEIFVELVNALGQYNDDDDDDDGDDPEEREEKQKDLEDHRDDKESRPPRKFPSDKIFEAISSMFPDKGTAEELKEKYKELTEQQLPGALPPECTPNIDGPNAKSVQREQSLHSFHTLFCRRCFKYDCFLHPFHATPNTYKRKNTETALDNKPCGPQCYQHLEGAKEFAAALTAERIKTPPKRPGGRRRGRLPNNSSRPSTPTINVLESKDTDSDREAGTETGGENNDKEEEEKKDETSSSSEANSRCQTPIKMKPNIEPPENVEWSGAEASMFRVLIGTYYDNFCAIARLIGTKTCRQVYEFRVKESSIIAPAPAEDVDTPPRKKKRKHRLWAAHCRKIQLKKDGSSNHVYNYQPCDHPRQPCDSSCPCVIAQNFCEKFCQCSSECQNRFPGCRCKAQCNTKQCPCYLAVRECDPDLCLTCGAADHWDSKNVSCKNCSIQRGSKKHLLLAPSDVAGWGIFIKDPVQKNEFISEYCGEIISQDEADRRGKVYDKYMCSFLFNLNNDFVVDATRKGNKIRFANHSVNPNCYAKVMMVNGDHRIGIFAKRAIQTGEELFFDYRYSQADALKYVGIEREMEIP
Sequence of PRC2 core (EZH2-EED-SUZ12-RBBP4) (Q15022 whole entry, chain 2 of 4): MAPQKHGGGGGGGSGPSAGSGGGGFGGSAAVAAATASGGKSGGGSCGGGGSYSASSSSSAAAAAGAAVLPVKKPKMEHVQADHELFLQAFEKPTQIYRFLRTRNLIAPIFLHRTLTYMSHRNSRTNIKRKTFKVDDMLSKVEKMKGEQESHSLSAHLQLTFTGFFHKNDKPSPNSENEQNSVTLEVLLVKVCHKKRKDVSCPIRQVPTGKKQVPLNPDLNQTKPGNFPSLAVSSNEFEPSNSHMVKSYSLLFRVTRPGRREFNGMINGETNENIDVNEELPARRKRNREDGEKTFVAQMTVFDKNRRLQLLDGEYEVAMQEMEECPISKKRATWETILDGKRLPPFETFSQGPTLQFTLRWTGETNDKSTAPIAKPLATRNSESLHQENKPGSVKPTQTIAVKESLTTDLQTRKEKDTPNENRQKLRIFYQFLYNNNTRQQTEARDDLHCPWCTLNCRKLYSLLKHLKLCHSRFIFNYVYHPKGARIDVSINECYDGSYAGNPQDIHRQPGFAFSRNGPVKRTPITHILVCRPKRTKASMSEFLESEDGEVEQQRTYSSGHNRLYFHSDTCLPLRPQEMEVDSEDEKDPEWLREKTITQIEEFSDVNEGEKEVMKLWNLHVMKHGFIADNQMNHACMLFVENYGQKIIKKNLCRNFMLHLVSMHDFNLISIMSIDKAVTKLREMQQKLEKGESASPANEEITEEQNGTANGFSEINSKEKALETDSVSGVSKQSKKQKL
Sequence of PRC2 core (EZH2-EED-SUZ12-RBBP4) (O75530 whole entry, chain 3 of 4): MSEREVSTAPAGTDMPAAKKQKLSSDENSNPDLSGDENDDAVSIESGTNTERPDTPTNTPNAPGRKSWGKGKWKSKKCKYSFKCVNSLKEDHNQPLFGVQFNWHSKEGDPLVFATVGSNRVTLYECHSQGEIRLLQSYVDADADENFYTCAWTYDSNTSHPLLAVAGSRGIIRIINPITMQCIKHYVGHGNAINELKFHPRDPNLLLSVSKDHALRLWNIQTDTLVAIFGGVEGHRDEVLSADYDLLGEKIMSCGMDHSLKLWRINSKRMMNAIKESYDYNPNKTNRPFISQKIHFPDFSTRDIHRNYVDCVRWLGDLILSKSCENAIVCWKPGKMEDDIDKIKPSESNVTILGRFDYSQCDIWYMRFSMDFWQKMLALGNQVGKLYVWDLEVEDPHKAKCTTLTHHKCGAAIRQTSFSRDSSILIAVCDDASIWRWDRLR
Sequence of PRC2 core (EZH2-EED-SUZ12-RBBP4) (Q09028 whole entry, chain 4 of 4): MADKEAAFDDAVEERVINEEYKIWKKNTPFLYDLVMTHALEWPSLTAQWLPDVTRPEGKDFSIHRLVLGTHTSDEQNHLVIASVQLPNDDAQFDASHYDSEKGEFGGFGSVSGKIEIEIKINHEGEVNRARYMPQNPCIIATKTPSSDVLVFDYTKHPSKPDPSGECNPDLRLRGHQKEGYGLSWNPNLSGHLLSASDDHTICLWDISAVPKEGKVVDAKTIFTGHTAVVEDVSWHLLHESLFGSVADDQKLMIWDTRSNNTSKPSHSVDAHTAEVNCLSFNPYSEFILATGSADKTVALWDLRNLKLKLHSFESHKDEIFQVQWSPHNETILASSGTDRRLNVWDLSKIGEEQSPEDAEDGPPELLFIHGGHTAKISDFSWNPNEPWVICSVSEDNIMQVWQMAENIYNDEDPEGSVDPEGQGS

Binder: UUAGGGUUAGGGUUAGGGUUAGGG (structured_RNA) [G4 24 RNA]
- Kd (PRC2-AEBP2 [1]): 60.5 ± 2.2 nM
- Kd (PRC2-AEBP2 [2]): 54.6 ± 3.8 nM
- Kd (PRC2-AEBP2 mt2): 141 ± 8 nM
- Kd (PRC2-PHF19): 34 ± 1.8 nM
- Kd (PRC2-MTF2-EPOP): 40.9 ± 3.9 nM
- Kd (PRC2-AEBP2 mt1): 173 ± 7 nM
- Kd (PRC2-AEBP2 mt3): 124 ± 7 nM
- Kd [3]: 129 ± 6 nM
- Kd (PRC2-AEBP2 mt4): 102 ± 4 nM
- Kd (PRC2-AEBP2 mt5): 93.7 ± 6.3 nM
- Kd (PRC2-MTF2): 82.4 ± 9.8 nM
- Kd (PRC2-AEBP2 [4]): 19.2 ± 2.7 nM
